The data set relates to Saccharomyces cerevisiae. Put plainly: protein stability index of tFT-peptide fusion (C-terminal peptide) (PSI (0-1 scale)); higher = more stable (slower turnover). Particulars: temperature: 30 C. The protocol: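 MPS profiling in S. cerevisiae of the yeast C-terminome library: the last 12 aa of each annotated ORF are fused to the C-terminus of a sfGFP-mCherry timer, after a GGGS linker. Cells are FACS-sorted into 8 mCherry/sfGFP bins and deep-sequenced. PSI runs from 0 (unstable) to 1 (stable); wild type and das1Δ backgrounds, two technical replicates each.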

Where [1] appears, read: genetic background: das1 deletion.

± gives the standard deviation of the averaged measurements.

As to FFMIMVMVINFI [FIG2 C-terminal 12 aa], the protein stability index is, setting by setting: under setting [1], 0.195 ± 0.03; (genetic background: wild type) 0.199 ± 0.0042.
FFTKLFKKKSSR [MSC3 C-terminal 12 aa] returned a protein stability index under setting [1] of 0.705 ± 0.02 and a protein stability index (genetic background: wild type) of 0.6832 ± 0.0021.
The like results for FFVFLFWWIFLK [SEC22 C-terminal 12 aa] were, in that order, 0.155 ± 0.019 and 0.131 ± 0.015.
FGQDGCLYIYNQ [YHR045W C-terminal 12 aa]: the protein stability index was 0.713 ± 0.015 under setting [1] and 0.698 ± 0.021 (genetic background: wild type).
The like results for FHTLENHLKGNS [ADR1 C-terminal 12 aa] were, in that order, 0.697 ± 0.02 and 0.731 ± 0.064.
The like results for FIAQAEAEAETD [GRS1 C-terminal 12 aa] were, in that order, 0.688 ± 0.014 and 0.669 ± 0.017.
For FIRKIYSAIKVE [TMN2 C-terminal 12 aa] the same measures were 0.385 ± 0.012 and 0.268 ± 0.016.
In the case of FKIFAKLFCTRK [HLR1 C-terminal 12 aa], the protein stability index by setting is: under setting [1], 0.71093 ± 0.00038; (genetic background: wild type) 0.6936 ± 0.0041.
For FKKSVDQMNAST [PSY2 C-terminal 12 aa] the same measures were 0.692 ± 0.026 and 0.691 ± 0.017.
Sequence “FLSNEPTFLGCV [YPL135C-A C-terminal 12 aa]” came in with a protein stability index under setting [1] of 0.72 ± 0.018 and a protein stability index (genetic background: wild type) of 0.722 ± 0.033.
For FLVNTTNKKESD [YIL092W C-terminal 12 aa] the same measures were 0.6861 ± 0.004 and 0.693 ± 0.024.
For FMSNTLFNSSLV [YPR003C C-terminal 12 aa] the same measures were 0.668 ± 0.012 and 0.693 ± 0.037.
The like results for FQRRSISGLGDL [INP1 C-terminal 12 aa] were, in that order, 0.711 ± 0.0092 and 0.676 ± 0.031.
The sequence FQTITGEEKEKK [ECM16 C-terminal 12 aa] had a protein stability index under setting [1] of 0.708 ± 0.027 and a protein stability index (genetic background: wild type) of 0.728 ± 0.023.
For FRSQRLHMDSKP [BUD27 C-terminal 12 aa] the same measures were 0.727 ± 0.018 and 0.6682 ± 0.0053.
Regarding FSALMGESDDEE [TIF4631 C-terminal 12 aa], the protein stability index by setting is: under setting [1], 0.659 ± 0.019; (genetic background: wild type) 0.678 ± 0.047.
For FSTWDIADKQEA [PMT2 C-terminal 12 aa] the same measures were 0.717 ± 0.016 and 0.732 ± 0.023.
On to FSVEQREKPSNN [GRX6 C-terminal 12 aa], for which the protein stability index was 0.69394 ± 0.0003 under setting [1] and 0.69949 ± 0.00033 (genetic background: wild type).
For FTPSNQSHGNFY [TEC1 C-terminal 12 aa] the same measures were 0.718 ± 0.015 and 0.662 ± 0.007.
Turning to FVYKGVRKPKRN [SEN15 C-terminal 12 aa], the protein stability index reads like this: under setting [1], 0.752 ± 0.033; (genetic background: wild type) 0.778 ± 0.1.
The like results for FYHVFDEPRYYL [CWH43 C-terminal 12 aa] were, in that order, 0.7524 ± 0.0054 and 0.7087 ± 0.0018.
The like results for GAGALAAAAMLL [CWP2 C-terminal 12 aa] were, in that order, 0.711 ± 0.032 and 0.665 ± 0.027.
Take GASAEDNTHPDE [NAB6 C-terminal 12 aa]: the protein stability index was 0.694 ± 0.011 under setting [1] and 0.681 ± 0.046 (genetic background: wild type).
The like results for GDENFVILEFEC [OAZ1 C-terminal 12 aa] were, in that order, 0.7 ± 0.019 and 0.732 ± 0.036.
The like results for GDIIKLRESVNA [YJL215C C-terminal 12 aa] were, in that order, 0.6729 ± 0.0061 and 0.73 ± 0.05.
With GDLVNAIMSLSK [EGD2 C-terminal 12 aa], the protein stability index reads like this: under setting [1], 0.696 ± 0.013; (genetic background: wild type) 0.696 ± 0.025.
In the case of GEASTGNRLSFK [BNI1 C-terminal 12 aa], the protein stability index is 0.719 ± 0.013 under setting [1] and 0.72 ± 0.022 (genetic background: wild type).
For GFLGIRWGPRKD [TIM21 C-terminal 12 aa] the same measures were 0.7247 ± 0.00099 and 0.6861 ± 0.006.
With GFQATVGKRRRM [SUI3 C-terminal 12 aa], the protein stability index came out at 0.699 ± 0.019 under setting [1] and 0.703 ± 0.0081 (genetic background: wild type).
In turn, GGIRKISGSIKK [CDC14 C-terminal 12 aa] showed a protein stability index under setting [1] of 0.71 ± 0.01 and a protein stability index (genetic background: wild type) of 0.667 ± 0.037.
For GGSRGGFRGGRR [GAR1 C-terminal 12 aa] the same measures were 0.685 ± 0.041 and 0.707 ± 0.041.
For GHLSSSRRRLRT [SUV3 C-terminal 12 aa] the same measures were 0.7217 ± 0.0043 and 0.7 ± 0.034.
Take GIDVHYVFRTYH [CIN10 C-terminal 12 aa]: the protein stability index was 0.704 ± 0.012 under setting [1] and 0.6311 ± 0.0031 (genetic background: wild type).
For GKTTYSEVWAGY [VVS1 C-terminal 12 aa] the same measures were 0.746 ± 0.04 and 0.741 ± 0.013.
For GLFPSNYVSLGN [ABP1 C-terminal 12 aa] the same measures were 0.689 ± 0.0081 and 0.721 ± 0.01.
Take GLLLPLCHRKRS [YOR012W C-terminal 12 aa]: the protein stability index by setting is: under setting [1], 0.706 ± 0.015; (genetic background: wild type) 0.411 ± 0.039.
Turning to GLRVANPDSDPE [YDR239C C-terminal 12 aa], the protein stability index by setting is: under setting [1], 0.7 ± 0.0077; (genetic background: wild type) 0.721 ± 0.081.
For GLSLSFSKKLDL [DSN1 C-terminal 12 aa], the protein stability index by setting is: under setting [1], 0.685 ± 0.023; (genetic background: wild type) 0.671 ± 0.026.
For “GSTSCPLLRLSR [YHR073C-B C-terminal 12 aa]” the same measures were 0.707 ± 0.021 and 0.685 ± 0.013.
For GYAKTWSIASAN [CTT1 C-terminal 12 aa] the same measures were 0.714 ± 0.011 and 0.674 ± 0.028.
The like results for GYCKVHPVSDSK [ASI1 C-terminal 12 aa] were, in that order, 0.706 ± 0.0072 and 0.656 ± 0.036.
For HAGTRPVLLLQK [YKL053W C-terminal 12 aa], the protein stability index is, setting by setting: under setting [1], 0.694 ± 0.016; (genetic background: wild type) 0.674 ± 0.04.
The like results for HCTVVLPSILKR [YHR217C C-terminal 12 aa] were, in that order, 0.714 ± 0.024 and 0.705 ± 0.0033.
As for HDHHNDVPEAPV [RAD1 C-terminal 12 aa], the protein stability index is 0.6941 ± 0.0012 under setting [1] and 0.692 ± 0.022 (genetic background: wild type).
For HEEVKHTADTVD [CDC37 C-terminal 12 aa] the same measures were 0.71118 ± 0.00024 and 0.67 ± 0.018.
For HEWKTSINAIST [SWT1 C-terminal 12 aa] the same measures were 0.6881 ± 0.0024 and 0.727 ± 0.079.
Turning to HFKTLVEAFTRN [VPS52 C-terminal 12 aa], the protein stability index reads like this: under setting [1], 0.709 ± 0.0082; (genetic background: wild type) 0.714 ± 0.047.
The like results for HFQYKGKPSRRF [BUB1 C-terminal 12 aa] were, in that order, 0.693 ± 0.012 and 0.685 ± 0.035.
For HISLKCIVYKEY [YER135C C-terminal 12 aa] the same measures were 0.638 ± 0.0081 and 0.665 ± 0.016.
For HKGAVCVALNDV [LST8 C-terminal 12 aa] the same measures were 0.6883 ± 0.0052 and 0.696 ± 0.051.
On to HKGNGTDKVFVF [AIM33 C-terminal 12 aa], for which the protein stability index runs as follows: under setting [1], 0.7139 ± 0.001; (genetic background: wild type) 0.693 ± 0.017.
The like results for HKNHSVPRLIQV [YCL068C C-terminal 12 aa] were, in that order, 0.6194 ± 0.0049 and 0.654 ± 0.048.
The like results for HKQCDSLLDRLK [PTA1 C-terminal 12 aa] were, in that order, 0.698 ± 0.024 and 0.7053 ± 0.0067.
HLEKKEPKSRKK [YDL129W C-terminal 12 aa]: the protein stability index was 0.724 ± 0.013 under setting [1] and 0.689 ± 0.03 (genetic background: wild type).
The like results for HLTKLCIFPGLP [YLR282C C-terminal 12 aa] were, in that order, 0.68857 ± 5.1e-05 and 0.70209 ± 0.00069.
For HLYDHILEKMVK [CNM67 C-terminal 12 aa] the same measures were 0.694 ± 0.032 and 0.7 ± 0.018.
For HLYFQNPPPAMC [HOT13 C-terminal 12 aa] the same measures were 0.72 ± 0.021 and 0.728 ± 0.031.
In the case of HNLHSYEKRLHN [IMD2 C-terminal 12 aa], the protein stability index under setting [1] turned out to be 0.7234 ± 0.0046 and the protein stability index (genetic background: wild type) stood at 0.742 ± 0.066.
For HQFCEQKYVETI [RRT16 C-terminal 12 aa] the same measures were 0.7109 ± 0.0024 and 0.664 ± 0.0071.
The like results for HSRASVQSHPQH [DAL80 C-terminal 12 aa] were, in that order, 0.7271 ± 0.0023 and 0.699 ± 0.03.
The like results for HSSYDRPMIIKN [UBP15 C-terminal 12 aa] were, in that order, 0.685 ± 0.056 and 0.662 ± 0.025.
As for IADHLVGRKRVD [PFK2 C-terminal 12 aa], the protein stability index runs as follows: under setting [1], 0.701 ± 0.014; (genetic background: wild type) 0.712 ± 0.059.
The like results for IAEENSSTESLF [CIS1 C-terminal 12 aa] were, in that order, 0.709 ± 0.0088 and 0.726 ± 0.065.
The like results for ICCQVAKSLLKI [YGL074C C-terminal 12 aa] were, in that order, 0.656 ± 0.016 and 0.688 ± 0.027.
Sequence IDDKSDQEESLQ [MAF1 C-terminal 12 aa] came in with a protein stability index under setting [1] of 0.706 ± 0.0079 and a protein stability index (genetic background: wild type) of 0.664 ± 0.067.
The like results for IDLIAFLRNGPL [GPR1 C-terminal 12 aa] were, in that order, 0.737 ± 0.039 and 0.749 ± 0.088.
For IDLLAENTKTPI [COA1 C-terminal 12 aa], the protein stability index is, setting by setting: under setting [1], 0.6964 ± 0.0031; (genetic background: wild type) 0.697 ± 0.018.

(Values after the supplement of paper PMC10724198.)
